Numbering of substitutions follows the chain as printed.

First the molecules themselves.
T1: AP2-HC D1 (Plasmodium falciparum, UniProt Q8IKR9 1316-1374)
T1 sequence: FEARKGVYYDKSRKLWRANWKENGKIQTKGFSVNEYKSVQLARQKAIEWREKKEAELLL

B1: CACACA_site884 (dsDNA)
DNA 1: ATGTGGAAATAGAGCACACATATATATAATATATAT
DNA 2: ATATATATTATATATATGTGTGCTCTATTTCCACAT
B2: CACACA_site382 (dsDNA)
DNA 1: GATATATATATTCACACACACATGGAAATATATATA
DNA 2: TATATATATTTCCATGTGTGTGTGAATATATATATC
B3: CACACA_site1808 (dsDNA)
DNA 1: ATAAATATTAAAAGTACACACAGATACACTAATTAT
DNA 2: ATAATTAGTGTATCTGTGTGTACTTTTAATATTTAT
B4: CACACA_negctrl_site819 (dsDNA)
DNA 1: TGATTATATAAAAAAAAGAAAAAAAAAAAAAAAAAA
DNA 2: TTTTTTTTTTTTTTTTTTCTTTTTTTTATATAATCA
B5: CACACA_site5129 (dsDNA)
DNA 1: TATAAATACATACGTACACACAAATATTAAAATATA
DNA 2: TATATTTTAATATTTGTGTGTACGTATGTATTTATA
B6: CACACA_site1882 (dsDNA)
DNA 1: ATATAGATCTACACTGCACACATTTTTAACACTGCT
DNA 2: AGCAGTGTTAAAAATGTGTGCAGTGTAGATCTATAT
B7: CACACA_negctrl_site1670 (dsDNA)
DNA 1: TTTATTTAAAAAATAAAAAAAAAAAAAAAAAAAAAA
DNA 2: TTTTTTTTTTTTTTTTTTTTTTATTTTTTAAATAAA
B8: CACACA_negctrl_site143 (dsDNA)
DNA 1: ATAAACAGAAAAAAAAAAAAAAAAAAAAAAAAAAAA
DNA 2: TTTTTTTTTTTTTTTTTTTTTTTTTTTTCTGTTTAT
B9: CACACA_negctrl_site292 (dsDNA)
DNA 1: B8 DNA 1 with T2A, C6A, G8A, A36G
DNA 2: B8 DNA 2 with T1C, C29T, G31T, A35T
B10: CACACA_site6815 (dsDNA)
DNA 1: TAAGAGTAGTTATATACACACATGTATATTATAGTT
DNA 2: AACTATAATATACATGTGTGTATATAACTACTCTTA
B11: CACACA_site315 (dsDNA)
DNA 1: ACCAATAATATACATACACACATAAAGGTTTATATA
DNA 2: TATATAAACCTTTATGTGTGTATGTATATTATTGGT
B12: CACACA_site8037 (dsDNA)
DNA 1: TAAAAGAAATAAGGTGCACACATATACATATATATA
DNA 2: TATATATATGTATATGTGTGCACCTTATTTCTTTTA
B13: CACACA_site1955 (dsDNA)
DNA 1: AATGAATGTAAGAAAATACACACTAGTATAGTAACA
DNA 2: TGTTACTATACTAGTGTGTATTTTCTTACATTCATT
B14: CACACA_negctrl_site1293 (dsDNA)
DNA 1: TCATATTCCAAAAAAAAAAAAAAAAAAAAAAAAATA
DNA 2: TATTTTTTTTTTTTTTTTTTTTTTTTTGGAATATGA
B15: CACACA_site7113 (dsDNA)
DNA 1: TACGTTCTGATATATACACACCTGGTATTAATTATG
DNA 2: CATAATTAATACCAGGTGTGTATATATCAGAACGTA
B16: CACACA_site6369 (dsDNA)
DNA 1: ATAAATAAGATATATACACACATATCTATACATATT
DNA 2: AATATGTATAGATATGTGTGTATATATCTTATTTAT
B17: CACACA_site3408 (dsDNA)
DNA 1: GATCTATACATGGGGACACACATCACTCTATATTTT
DNA 2: AAAATATAGAGTGATGTGTGTCCCCATGTATAGATC
B18: CACACA_negctrl_site1113 (dsDNA)
DNA 1: TTTTTTTTTAAAGAAAATAAAAATATGTACTTGACA
DNA 2: TGTCAAGTACATATTTTTATTTTCTTTAAAAAAAAA
B19: CACACA_site1591 (dsDNA)
DNA 1: TTAGCAACTATTACTACACACATTTGTATATAATTT
DNA 2: AAATTATATACAAATGTGTGTAGTAATAGTTGCTAA
B20: CACACA_negctrl_site1615 (dsDNA)
DNA 1: TTTTTTTGCATGAGCAATAAAAAAGGCTTGTTCAAA
DNA 2: TTTGAACAAGCCTTTTTTATTGCTCATGCAAAAAAA
B21: CACACA_site2516 (dsDNA)
DNA 1: AAAAAAAATGATAATATACACACTTATGGGAGAGCG
DNA 2: CGCTCTCCCATAAGTGTGTATATTATCATTTTTTTT
B22: CACACA_site8492 (dsDNA)
DNA 1: AAAAAAAAAAAAAAAACACACACAAATTTAATATAT
DNA 2: ATATATTAAATTTGTGTGTGTTTTTTTTTTTTTTTT
B23: CACACA_negctrl_site585 (dsDNA)
DNA 1: TTTTTTTCTTGTTTTAAATAATATACTGGAAAAAAA
DNA 2: TTTTTTTCCAGTATATTATTTAAAACAAGAAAAAAA
B24: CACACA_site8055 (dsDNA)
DNA 1: ATCTAAATAAAGTTAACACACACATAATATATATAT
DNA 2: ATATATATATTATGTGTGTGTTAACTTTATTTAGAT
B25: CACACA_site9316 (dsDNA)
DNA 1: CTTTTTAATAAATATACACACACAAAAAAAAAAAAA
DNA 2: TTTTTTTTTTTTTGTGTGTGTATATTTATTAAAAAG
B26: CACACA_site3596 (dsDNA)
DNA 1: AAATTCAAACAAATTACACACATTTTTTTTTAATTT
DNA 2: AAATTAAAAAAAAATGTGTGTAATTTGTTTGAATTT
B27: CACACA_negctrl_site807 (dsDNA)
DNA 1: TTTTTTTTTTTTTTTTTTAAACACCTCAAAAAAAAA
DNA 2: TTTTTTTTTGAGGTGTTTAAAAAAAAAAAAAAAAAA
B28: CACACA_site2016 (dsDNA)
DNA 1: CCAACATATATTATCACACACATATATATATATATA
DNA 2: TATATATATATATATGTGTGTGATAATATATGTTGG
B29: CACACA_site7038 (dsDNA)
DNA 1: B28 DNA 1 with C1A, A10G, T27A, T33A
DNA 2: B28 DNA 2 with A4T, A10T, T27C, G36T
B30: CACACA_negctrl_site1343 (dsDNA)
DNA 1: TTTTAAAAAAAAAAAAAAAAAAAAAAAAAAAAAAAA
DNA 2: TTTTTTTTTTTTTTTTTTTTTTTTTTTTTTTTAAAA
B31: CACACA_site9021 (dsDNA)
DNA 1: ATTTCGTAATTTATATCACACACATATATATATAAT
DNA 2: ATTATATATATATGTGTGTGATATAAATTACGAAAT
B32: CACACA_negctrl_site1298 (dsDNA)
DNA 1: ATATTATCATTTTTTTTAATGGAAAAAAAAAAAAAA
DNA 2: TTTTTTTTTTTTTTCCATTAAAAAAAATGATAATAT
B33: CACACA_negctrl_site1524 (dsDNA)
DNA 1: TTTTTTTTTTTTTTTTTTTTACCCCTTTTTCAAAAA
DNA 2: TTTTTGAAAAAGGGGTAAAAAAAAAAAAAAAAAAAA
B34: CACACA_negctrl_site1727 (dsDNA)
DNA 1: TAACCACAAAAATAAAATCAAAAAAAAAAAAAAAAA
DNA 2: TTTTTTTTTTTTTTTTTGATTTTATTTTTGTGGTTA
B35: CACACA_site2473 (dsDNA)
DNA 1: GTTATTGTAAAAAGATTACACACGTTCTATATACTT
DNA 2: AAGTATATAGAACGTGTGTAATCTTTTTACAATAAC
B36: CACACA_negctrl_site273 (dsDNA)
DNA 1: TTTTTTTTTTTTTTTTTTTTTTGTGAAACTAAGTAA
DNA 2: TTACTTAGTTTCACAAAAAAAAAAAAAAAAAAAAAA
B37: CACACA_site8007 (dsDNA)
DNA 1: TTTATTTTATCATTTGCACACGCACCCCCACATAAA
DNA 2: TTTATGTGGGGGTGCGTGTGCAAATGATAAAATAAA
B38: CACACA_site2909 (dsDNA)
DNA 1: TTCTTTTTCCAATTTGCACACCACAAAATTATATAT
DNA 2: ATATATAATTTTGTGGTGTGCAAATTGGAAAAAGAA
B39: CACACA_negctrl_site1718 (dsDNA)
DNA 1: TTTTTGCAAAAAGAAATAATTTTATTTTAGTTCGGA
DNA 2: TCCGAACTAAAATAAAATTATTTCTTTTTGCAAAAA
B40: CACACA_site7206 (dsDNA)
DNA 1: TACCTAATATGTTATACACACATTATAAGTACATAT
DNA 2: ATATGTACTTATAATGTGTGTATAACATATTAGGTA
B41: CACACA_site6743 (dsDNA)
DNA 1: AAGAAGCATAAATGTACACACATATTTATATATCAA
DNA 2: TTGATATATAAATATGTGTGTACATTTATGCTTCTT

The data set has as its target T1, AP2-HC D1. As to the kind of experiment: gcPBM; about 25 ug protein; PBS, 1% milk, 0.2 mg/ml BSA, salmon testes DNA, 0.03% Triton X-100. As to conditions: tags: N-terminal GST (pGEX-4T-1), kept; label: surface-attached array probe.
B1: the binding signal is 9.92 ln median PBM intensity, better of two orientations.

Consider B2, for which the binding signal was 10.1 ln median PBM intensity, better of two orientations.

For B3, the binding signal was 10 ln median PBM intensity, better of two orientations.

B4: the binding signal is 9.07 ln median PBM intensity, better of two orientations.

With B5, the binding signal is 9.91 ln median PBM intensity, better of two orientations.

On to B6, for which the binding signal was 10 ln median PBM intensity, better of two orientations.

As for B7, the binding signal was 8.32 ln median PBM intensity, better of two orientations.

As for B8, the binding signal is 8.89 ln median PBM intensity, better of two orientations.

Turning to B9, the binding signal was 9.04 ln median PBM intensity, better of two orientations.

Take B10: the binding signal was 9.9 ln median PBM intensity, better of two orientations.

With B11, the binding signal was 9.89 ln median PBM intensity, better of two orientations.

In the case of B12, the binding signal was 9.97 ln median PBM intensity, better of two orientations.

Turning to B13, the binding signal is 9.93 ln median PBM intensity, better of two orientations.

As to B14, the binding signal is 9.15 ln median PBM intensity, better of two orientations.

In the case of B15, the binding signal was 10 ln median PBM intensity, better of two orientations.

Take B16: the binding signal is 9.9 ln median PBM intensity, better of two orientations.

In the case of B17, the binding signal was 10.1 ln median PBM intensity, better of two orientations.

On to B18, for which the binding signal is 9.17 ln median PBM intensity, better of two orientations.

Turning to B19, the binding signal is 9.95 ln median PBM intensity, better of two orientations.

Consider B20, for which the binding signal is 9.03 ln median PBM intensity, better of two orientations.

In the case of B21, the binding signal is 9.94 ln median PBM intensity, better of two orientations.

As for B22, the binding signal was 10.1 ln median PBM intensity, better of two orientations.

Consider B23, for which the binding signal was 8.87 ln median PBM intensity, better of two orientations.

For the molecule B24, the binding signal was 10.1 ln median PBM intensity, better of two orientations.

For the molecule B25, the binding signal is 10.1 ln median PBM intensity, better of two orientations.

Regarding B26, the binding signal is 9.94 ln median PBM intensity, better of two orientations.

In the case of B27, the binding signal is 8.83 ln median PBM intensity, better of two orientations.

Consider B28, for which the binding signal is 9.91 ln median PBM intensity, better of two orientations.

B29: the binding signal was 9.96 ln median PBM intensity, better of two orientations.

Turning to B30, the binding signal is 8.78 ln median PBM intensity, better of two orientations.

Take B31: the binding signal was 9.99 ln median PBM intensity, better of two orientations.

B32: the binding signal was 9.12 ln median PBM intensity, better of two orientations.

For B33, the binding signal is 8.65 ln median PBM intensity, better of two orientations.

As for B34, the binding signal is 8.75 ln median PBM intensity, better of two orientations.

With B35, the binding signal is 9.97 ln median PBM intensity, better of two orientations.

In the case of B36, the binding signal is 8.92 ln median PBM intensity, better of two orientations.

Consider B37, for which the binding signal was 10 ln median PBM intensity, better of two orientations.

Consider B38, for which the binding signal was 10 ln median PBM intensity, better of two orientations.

With B39, the binding signal was 9.16 ln median PBM intensity, better of two orientations.

As to B40, the binding signal was 9.98 ln median PBM intensity, better of two orientations.

Turning to B41, the binding signal was 10.1 ln median PBM intensity, better of two orientations.

These data come from publication PMC11417369, “DNA sequence and chromatin differentiate sequence-specific transcription factor binding in the human malaria parasite Plasmodium falciparum”.
